For the series the following is noted: pH 6, cacodylate 0.03 M, reversible: yes; for denaturant m value / denaturant midpoint (higher = more stable) / unfolding free energy: 25 °C, GdnHCl, KCl 0.1 M.
Setting [1] is: Equus caballus, Thermal, CD, KCl.

Several values for one entry are separate records, joined by “and”; a condition that tells them apart may be missing. Equal entries are not always repeated.

By Tm is commonly meant the temperature at the midpoint of the melting transition.

Chain of Cytochrome c wild type, P00004 (P00004 whole entry): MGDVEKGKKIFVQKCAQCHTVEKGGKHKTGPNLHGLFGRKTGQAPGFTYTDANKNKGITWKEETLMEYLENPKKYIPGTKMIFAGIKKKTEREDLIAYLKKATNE
Chain of Cytochrome c wild type, P62894 (P62894 whole entry): as the sequence (P00004 whole entry) above, with T48S, K61G, T90G counted along it

With Cytochrome c wild type, P00004, where the note is “Equus caballus, Absorbance”, the denaturant m value is 3.53 kcal/mol/M and 2.49 kcal/mol/M and 2.87 kcal/mol/M; the “denaturant midpoint (higher = more stable)” value (from here on “denaturant midpoint”) is 2.49 M and 2.35 M and 2.37 M; the unfolding free energy was 8.83 kcal/mol and 6.01 kcal/mol and 6.81 kcal/mol. Moreover, for the setting “Equus caballus, CD”, the denaturant m value was 2.69 kcal/mol/M and 3.48 kcal/mol/M and 3.39 kcal/mol/M; the “denaturant midpoint” value was 2.5 M and 2.4 M and 2.45 M; the unfolding free energy was 6.71 kcal/mol and 8.36 kcal/mol and 8.31 kcal/mol. In addition, under setting [1], the Tm turned out to be 26.8 °C and the “unfolding enthalpy (van 't Hoff)” value worked out at 19.1 kcal/mol.
As for Cytochrome c wild type, P62894, for the setting “Bos taurus, Absorbance”, the denaturant m value turned out to be 3.95 kcal/mol/M, the “denaturant midpoint” value is 2.65 M and the unfolding free energy came out at 10.5 kcal/mol. Where the note is “Bos taurus, CD”, the denaturant m value is 4.02 kcal/mol/M and 4.03 kcal/mol/M and 3.91 kcal/mol/M; the “denaturant midpoint” value is 2.63 M and 2.61 M; the unfolding free energy was 10.6 kcal/mol and 10.2 kcal/mol.

The record behind these values is FireProtDB (doi:10.1016/s1570-9639(02)00548-4).
